Measured values from patent US20240254222A1 (Bayer, published 2024).
One block for each binder: values may come before it.

How the values were obtained:
Experiment in all cases: ELISA
Sema3B (R&D Systems) = target: T1, Sema3B (R&D Systems) (Homo sapiens (Human), UniProt Q13214 25-749)
T1 sequence: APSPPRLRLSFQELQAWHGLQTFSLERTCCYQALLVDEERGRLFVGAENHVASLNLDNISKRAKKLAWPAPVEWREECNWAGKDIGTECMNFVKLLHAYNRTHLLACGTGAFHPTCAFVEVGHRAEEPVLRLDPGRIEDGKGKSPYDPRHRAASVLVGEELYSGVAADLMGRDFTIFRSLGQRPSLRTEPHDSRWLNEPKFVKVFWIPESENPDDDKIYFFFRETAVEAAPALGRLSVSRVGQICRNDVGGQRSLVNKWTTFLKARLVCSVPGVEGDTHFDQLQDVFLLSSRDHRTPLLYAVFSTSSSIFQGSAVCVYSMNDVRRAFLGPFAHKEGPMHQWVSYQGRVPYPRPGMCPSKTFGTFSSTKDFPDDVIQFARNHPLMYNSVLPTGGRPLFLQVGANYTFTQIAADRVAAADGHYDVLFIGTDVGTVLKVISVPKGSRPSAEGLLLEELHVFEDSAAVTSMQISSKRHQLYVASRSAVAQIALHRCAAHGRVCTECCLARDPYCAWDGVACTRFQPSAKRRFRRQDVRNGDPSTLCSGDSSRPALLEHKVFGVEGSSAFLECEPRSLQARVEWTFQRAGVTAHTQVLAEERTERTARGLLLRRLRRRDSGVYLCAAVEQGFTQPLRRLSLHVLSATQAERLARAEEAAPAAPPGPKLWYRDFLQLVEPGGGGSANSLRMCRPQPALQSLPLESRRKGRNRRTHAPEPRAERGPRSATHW

Sema3C (R&D Systems) = target: T2, Sema3C (R&D Systems) (Homo sapiens (Human), UniProt Q99985 21-751)
T2 sequence: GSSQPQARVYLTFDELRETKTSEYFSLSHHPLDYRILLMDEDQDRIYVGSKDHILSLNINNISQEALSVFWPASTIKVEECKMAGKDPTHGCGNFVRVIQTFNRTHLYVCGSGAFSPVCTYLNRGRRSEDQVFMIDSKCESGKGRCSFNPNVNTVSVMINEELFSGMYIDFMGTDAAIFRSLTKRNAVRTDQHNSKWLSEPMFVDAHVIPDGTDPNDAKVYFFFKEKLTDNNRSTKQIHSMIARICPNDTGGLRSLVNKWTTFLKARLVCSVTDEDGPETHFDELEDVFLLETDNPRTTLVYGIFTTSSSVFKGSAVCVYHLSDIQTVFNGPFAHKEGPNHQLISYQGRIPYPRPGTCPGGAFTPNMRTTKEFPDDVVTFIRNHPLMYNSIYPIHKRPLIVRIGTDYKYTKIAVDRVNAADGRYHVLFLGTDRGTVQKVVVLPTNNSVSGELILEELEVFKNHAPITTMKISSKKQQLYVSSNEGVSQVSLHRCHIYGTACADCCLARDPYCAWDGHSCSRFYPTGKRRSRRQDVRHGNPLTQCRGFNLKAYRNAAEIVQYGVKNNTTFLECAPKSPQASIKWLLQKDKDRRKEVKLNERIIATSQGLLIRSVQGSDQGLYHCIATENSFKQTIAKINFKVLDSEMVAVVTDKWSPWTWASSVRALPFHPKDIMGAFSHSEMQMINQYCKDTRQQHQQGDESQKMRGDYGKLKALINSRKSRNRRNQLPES

Sema3D (R&D Systems) = target: T3, Sema3D (R&D Systems) (Homo sapiens (Human), UniProt O95025 37-777)
T3 sequence: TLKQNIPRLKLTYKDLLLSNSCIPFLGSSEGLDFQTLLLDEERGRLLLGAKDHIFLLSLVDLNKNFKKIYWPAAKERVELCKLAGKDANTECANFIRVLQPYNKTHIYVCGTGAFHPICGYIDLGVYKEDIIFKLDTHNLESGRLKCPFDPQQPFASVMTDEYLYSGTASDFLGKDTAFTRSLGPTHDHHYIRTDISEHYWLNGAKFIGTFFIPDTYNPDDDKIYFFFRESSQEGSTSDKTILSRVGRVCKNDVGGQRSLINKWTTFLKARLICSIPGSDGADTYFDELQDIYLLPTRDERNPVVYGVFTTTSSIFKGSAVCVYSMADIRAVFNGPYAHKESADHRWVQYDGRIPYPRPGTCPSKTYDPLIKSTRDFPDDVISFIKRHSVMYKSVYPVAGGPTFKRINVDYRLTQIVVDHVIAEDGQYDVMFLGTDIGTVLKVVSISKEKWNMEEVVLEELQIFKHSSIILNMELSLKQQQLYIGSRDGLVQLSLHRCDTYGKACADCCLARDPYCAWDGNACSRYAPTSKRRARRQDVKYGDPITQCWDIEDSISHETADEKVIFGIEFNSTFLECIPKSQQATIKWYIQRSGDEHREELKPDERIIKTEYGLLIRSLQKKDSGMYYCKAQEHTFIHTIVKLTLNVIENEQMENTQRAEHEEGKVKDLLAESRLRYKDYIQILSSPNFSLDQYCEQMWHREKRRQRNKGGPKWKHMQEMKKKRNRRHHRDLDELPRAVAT

Sema3E (R&D Systems) = target: T4, Sema3E (R&D Systems) (Homo sapiens (Human), UniProt O15041 26-775)
T4 sequence: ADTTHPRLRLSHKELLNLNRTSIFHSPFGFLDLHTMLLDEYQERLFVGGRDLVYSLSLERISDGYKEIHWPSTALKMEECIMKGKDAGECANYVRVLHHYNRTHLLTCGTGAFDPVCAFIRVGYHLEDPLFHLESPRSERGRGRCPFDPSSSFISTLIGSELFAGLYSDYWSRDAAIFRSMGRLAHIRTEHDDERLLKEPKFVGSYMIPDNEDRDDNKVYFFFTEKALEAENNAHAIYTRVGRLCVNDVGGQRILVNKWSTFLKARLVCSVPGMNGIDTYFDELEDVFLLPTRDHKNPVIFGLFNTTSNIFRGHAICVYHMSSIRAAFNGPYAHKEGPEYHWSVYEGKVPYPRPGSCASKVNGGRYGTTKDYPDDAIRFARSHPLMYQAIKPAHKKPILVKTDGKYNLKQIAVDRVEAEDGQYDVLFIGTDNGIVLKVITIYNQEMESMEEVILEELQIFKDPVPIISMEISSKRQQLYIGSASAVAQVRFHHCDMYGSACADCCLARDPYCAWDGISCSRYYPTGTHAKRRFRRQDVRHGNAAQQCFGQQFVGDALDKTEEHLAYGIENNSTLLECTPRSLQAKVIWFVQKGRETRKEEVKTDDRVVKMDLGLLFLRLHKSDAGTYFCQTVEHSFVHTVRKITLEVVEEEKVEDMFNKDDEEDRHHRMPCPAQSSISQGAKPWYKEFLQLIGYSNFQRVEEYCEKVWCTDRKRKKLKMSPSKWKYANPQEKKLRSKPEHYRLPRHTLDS

binding result (Sema3B (R&D Systems)): no binding
binding result (Sema3C (R&D Systems)): no binding
binding result (Sema3D (R&D Systems)): no binding
binding result (Sema3E (R&D Systems)): no binding
B1: TPP-15374 (antibody, human IgG1, lambda, V domains shown)
VH: EVQLLESGGGLVQPGGSLRLSCAASGFTFSSYEMNWVRQAPGKGLEWVSGISWNSGSIGYADSVKGRFTISRDNSKNTLYLQMNSLRAEDTAVYYCARSGYSSSWFDPDFDYWGQGTLVTVSS
VL: QSVLTQPPSASGTPGQRVTISCTGSSSNIGAGYDVHWYQQLPGTAPKLLIYGNSNRPSGVPDRFSGSKSGTSASLAISGLRSEDEADYYCSSYAGSNPYVVFGGGTKLTVLG
notes: human IgG1; also called IgG1, hit from panning; parental mAb

binding result (Sema3B (R&D Systems)): no binding
binding result (Sema3C (R&D Systems)): no binding
binding result (Sema3D (R&D Systems)): no binding
binding result (Sema3E (R&D Systems)): no binding
B2: TPP-15370 (antibody, human IgG1, lambda, V domains shown)
VH: EVQLLESGGGLVQPGGSLRLSCAASGFTFSSYGMHWVRQAPGKGLEWVSAIGTGGDTYYADSVMGRFTISRDNSKNTLYLQMNSLRAEDTAVYYCARRDDYTSRDAFDVWGQGTLVTVSS
VL: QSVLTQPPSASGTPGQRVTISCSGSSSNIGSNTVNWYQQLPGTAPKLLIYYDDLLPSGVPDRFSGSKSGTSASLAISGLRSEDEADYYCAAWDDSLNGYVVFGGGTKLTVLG
notes: as for B1
